Assay results: patent publication US20120231006A1 (Amgen, published 2012)

Assays:
Parameters in all cases: concentration or dose not given beside the values
[1] = target: T1, mOrai1-hOrai1 ECL2 (…) protein (human/mouse chimera, UniProt Q8BWG9 1-304 (mouse entry)); assay: FACS, 293EBNA
T1 construct: also called Ch
Description: (§1) FIG. 16A-D illustrates the results of FACS analysis showing binding to the indicated mOrai1-hOrai1 ECL2 chimeric mutants expressed on the surface of HEK-293-EBNA cells. Transfected cells were stained first with recombinant monoclonal antibodies then counter-stained with a secondary phycoerythrin-labeled goat (“Gt”) anti-human (“Hu”) IgG F(ab′)₂ antibody fragment and visualized using FACS. In FIG. 16B and FIG. 16D, The values of Relative Fluorescence Intensity as Percent of Control (RFI-POC) are calculated from the relative fluorescence intensity geometric mean (Geo Mean). The geometric mean is an average calculated by multiplying a series of numbers and taking the nth root where n is the number of numbers in the series. It is a statistical average of a set of transformed numbers often used to represent a central tendency in a highly variable data set that minimizes the effects of extreme values.
(§2) Table 11A and Table 11B feature a schematic representation of the POC data from FIG. 16B and FIG. 16D, respectively, where the binding results are recorded as (+++) denoting binding POC from 40% to 100%, (++) for POC of 5% to less than 40%, (+) for POC from 1% to less than 5% and (−) as lack of binding with POC less than 1%.
T1 sequence (Q8BWG9 other isoform, or with tags, fused parts or gaps): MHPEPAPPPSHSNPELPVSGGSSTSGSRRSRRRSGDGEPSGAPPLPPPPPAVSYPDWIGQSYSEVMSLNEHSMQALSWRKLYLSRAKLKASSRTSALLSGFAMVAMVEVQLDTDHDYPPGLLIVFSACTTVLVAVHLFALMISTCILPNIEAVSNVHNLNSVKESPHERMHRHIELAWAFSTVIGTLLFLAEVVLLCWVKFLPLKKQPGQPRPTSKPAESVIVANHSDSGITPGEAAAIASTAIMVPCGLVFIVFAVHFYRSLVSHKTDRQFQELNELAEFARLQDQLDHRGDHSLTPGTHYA

[2] = target: T2, mOrai1-hOrai1 ECL2 (KPPAE) protein (human/mouse chimera, UniProt Q8BWG9 1-304 (mouse entry)); assay: FACS, 293EBNA
T2 construct: also called Ch
T2 sequence (Q8BWG9 other isoform, or with tags, fused parts or gaps): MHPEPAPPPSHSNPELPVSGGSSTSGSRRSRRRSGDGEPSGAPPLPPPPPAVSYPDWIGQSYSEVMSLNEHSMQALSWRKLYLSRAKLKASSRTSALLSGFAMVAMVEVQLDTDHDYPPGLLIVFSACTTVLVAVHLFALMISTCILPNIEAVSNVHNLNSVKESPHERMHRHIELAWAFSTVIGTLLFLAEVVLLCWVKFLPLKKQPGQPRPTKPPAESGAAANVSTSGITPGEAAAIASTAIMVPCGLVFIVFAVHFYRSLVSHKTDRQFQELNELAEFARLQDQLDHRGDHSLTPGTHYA
Description: as §1, §2

[3] = target: T3, mOrai1-hOrai1 ECL2 (…) protein (human/mouse chimera, UniProt Q8BWG9 1-304 (mouse entry)); assay: FACS, 293EBNA; remark: listed apart in the source
T3 construct: also called Ch
Description: as §1, §2
T3 sequence (Q8BWG9 other isoform, or with tags, fused parts or gaps): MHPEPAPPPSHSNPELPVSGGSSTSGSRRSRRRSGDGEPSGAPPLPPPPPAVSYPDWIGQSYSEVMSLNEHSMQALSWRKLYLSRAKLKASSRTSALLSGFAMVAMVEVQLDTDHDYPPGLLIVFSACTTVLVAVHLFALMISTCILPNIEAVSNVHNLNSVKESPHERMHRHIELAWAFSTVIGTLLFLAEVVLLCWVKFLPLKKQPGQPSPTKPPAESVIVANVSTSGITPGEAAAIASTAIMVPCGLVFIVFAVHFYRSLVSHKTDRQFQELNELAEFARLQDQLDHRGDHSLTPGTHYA

[4] = target: T4, mOrai1-hOrai1 ECL2 (SPTKPPAE) protein (human/mouse chimera, UniProt Q8BWG9 1-304 (mouse entry)); assay: FACS, 293EBNA
T4 construct: also called Ch
T4 sequence (Q8BWG9 other isoform, or with tags, fused parts or gaps): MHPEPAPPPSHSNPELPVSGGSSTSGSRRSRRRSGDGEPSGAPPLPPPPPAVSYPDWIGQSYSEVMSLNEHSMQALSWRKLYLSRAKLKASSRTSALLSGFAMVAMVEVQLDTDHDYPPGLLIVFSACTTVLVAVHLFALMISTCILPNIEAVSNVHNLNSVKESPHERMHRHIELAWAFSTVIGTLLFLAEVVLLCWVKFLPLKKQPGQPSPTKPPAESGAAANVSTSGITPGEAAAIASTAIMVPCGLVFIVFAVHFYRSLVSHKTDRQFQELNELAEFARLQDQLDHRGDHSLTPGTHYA
Description: as §1, §2

[5] = target: T5, mOrai1-hOrai1 ECL2 (…) protein (human/mouse chimera, UniProt Q8BWG9 1-304 (mouse entry)); assay: FACS, 293EBNA; remark: listed apart in the source
T5 construct: also called Ch
Description: as §1, §2
T5 sequence (Q8BWG9 other isoform, or with tags, fused parts or gaps): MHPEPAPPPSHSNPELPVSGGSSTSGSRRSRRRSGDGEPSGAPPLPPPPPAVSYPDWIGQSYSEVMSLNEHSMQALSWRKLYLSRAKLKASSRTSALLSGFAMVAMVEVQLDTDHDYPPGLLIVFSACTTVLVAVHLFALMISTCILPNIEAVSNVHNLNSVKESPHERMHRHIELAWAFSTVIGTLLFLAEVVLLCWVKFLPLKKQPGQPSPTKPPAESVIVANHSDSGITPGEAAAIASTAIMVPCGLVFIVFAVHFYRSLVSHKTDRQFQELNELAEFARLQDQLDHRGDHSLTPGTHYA

[6] = target: T6, mOrai1-hOrai1 ECL2 (AESVIV) protein (human/mouse chimera, UniProt Q8BWG9 1-304 (mouse entry)); assay: FACS, 293EBNA
T6 construct: also called Ch
T6 sequence (Q8BWG9 other isoform, or with tags, fused parts or gaps): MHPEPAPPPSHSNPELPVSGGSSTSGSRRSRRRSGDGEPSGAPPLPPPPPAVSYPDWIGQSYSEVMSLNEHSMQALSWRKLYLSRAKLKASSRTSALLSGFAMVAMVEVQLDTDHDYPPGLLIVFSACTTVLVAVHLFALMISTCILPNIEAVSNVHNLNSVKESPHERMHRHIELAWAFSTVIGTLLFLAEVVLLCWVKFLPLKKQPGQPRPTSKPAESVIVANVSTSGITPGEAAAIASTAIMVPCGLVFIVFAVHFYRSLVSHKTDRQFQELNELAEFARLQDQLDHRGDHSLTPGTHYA
Description: as §1, §2

[7] = target: T7, hOrai1-mOrai1 ECL2 chimeric protein (human/mouse chimera, UniProt Q96D31 1-301); assay: FACS, 293EBNA
T7 construct: human Orai1 with mouse ECL2; also called Ch
T7 sequence (Q96D31 other isoform, or with tags, fused parts or gaps mutant): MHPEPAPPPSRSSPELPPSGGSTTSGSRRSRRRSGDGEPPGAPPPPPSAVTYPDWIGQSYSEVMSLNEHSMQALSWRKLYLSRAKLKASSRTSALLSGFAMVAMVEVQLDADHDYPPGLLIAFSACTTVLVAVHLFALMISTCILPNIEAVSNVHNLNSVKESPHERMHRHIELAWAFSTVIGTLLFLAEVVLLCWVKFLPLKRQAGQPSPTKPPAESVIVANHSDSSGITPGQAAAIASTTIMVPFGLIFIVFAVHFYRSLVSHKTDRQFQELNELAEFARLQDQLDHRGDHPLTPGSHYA
Description: as §1, §2

[8] = target: T8, mOrai1-hOrai1 ECL2 (…) protein (human/mouse chimera, UniProt Q8BWG9 1-304 (mouse entry)); assay: FACS, 293EBNA; remark: listed apart in the source
T8 construct: also called Ch
Description: as §1, §2
T8 sequence (Q8BWG9 other isoform, or with tags, fused parts or gaps): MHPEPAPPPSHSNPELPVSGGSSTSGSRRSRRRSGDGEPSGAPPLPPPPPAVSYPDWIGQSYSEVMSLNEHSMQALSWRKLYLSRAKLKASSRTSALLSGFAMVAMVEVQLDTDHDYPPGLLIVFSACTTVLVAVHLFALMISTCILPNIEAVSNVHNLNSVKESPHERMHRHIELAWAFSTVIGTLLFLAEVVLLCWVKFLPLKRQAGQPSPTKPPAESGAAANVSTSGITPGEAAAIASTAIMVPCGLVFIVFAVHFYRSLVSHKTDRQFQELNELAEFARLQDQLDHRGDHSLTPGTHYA

[9] = target: T9, hOrai1-mOrai1 ECL2 (…) protein (human/mouse chimera, UniProt Q96D31 1-301); assay: FACS, 293EBNA, RFI-POC grade
T9 construct: also called Ch
T9 sequence (Q96D31 other isoform, or with tags, fused parts or gaps): as the sequence (Q96D31 other isoform, or with tags, fused parts or gaps mutant) above, with R204K, A206P, S210R, K213S, P214K, A216P, E217A, V219G, I220A, V221A counted along it

[10] = target: T10, mOrai1-hOrai1 ECL2 chimeric protein (human/mouse chimera, UniProt Q8BWG9 1-304 (mouse entry)); assay: FACS, 293EBNA, RFI-POC grade
T10 construct: mouse Orai1 with human ECL2; also called Ch
T10 sequence (Q8BWG9 other isoform, or with tags, fused parts or gaps mutant): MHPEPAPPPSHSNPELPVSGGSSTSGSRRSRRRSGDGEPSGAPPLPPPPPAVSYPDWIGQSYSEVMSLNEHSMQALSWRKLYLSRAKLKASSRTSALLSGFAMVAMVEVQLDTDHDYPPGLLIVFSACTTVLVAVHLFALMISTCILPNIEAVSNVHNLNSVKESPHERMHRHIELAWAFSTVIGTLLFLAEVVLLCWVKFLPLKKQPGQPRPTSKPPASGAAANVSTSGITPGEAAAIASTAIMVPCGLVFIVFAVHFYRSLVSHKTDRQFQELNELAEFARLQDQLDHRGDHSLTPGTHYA

[11] = target: T11, hOrai1-mOrai1 ECL2 (…) protein (human/mouse chimera, UniProt Q96D31 1-301); assay: FACS, 293EBNA, RFI-POC grade; remark: listed apart in the source
T11 construct: also called Ch
T11 sequence (Q96D31 other isoform, or with tags, fused parts or gaps): as the sequence (Q96D31 other isoform, or with tags, fused parts or gaps mutant) above, with R204K, A206P, S210R, K213S, P214K, A216P, E217A counted along it

[12] = target: T12, hOrai1-mOrai1 ECL2 (…) protein (human/mouse chimera, UniProt Q96D31 1-301); assay: FACS, 293EBNA, RFI-POC grade; remark: listed apart in the source
T12 construct: also called Ch
T12 sequence (Q96D31 other isoform, or with tags, fused parts or gaps): as the sequence (Q96D31 other isoform, or with tags, fused parts or gaps mutant) above, with S210R, K213S, P214K, A216P, E217A, V219G, I220A, V221A counted along it

[13] = target: T13, hOrai1-mOrai1 ECL2 (RPTSKPPA) protein (human/mouse chimera, UniProt Q96D31 1-301); assay: FACS, 293EBNA, RFI-POC grade
T13 construct: also called Ch
T13 sequence (Q96D31 other isoform, or with tags, fused parts or gaps): as the sequence (Q96D31 other isoform, or with tags, fused parts or gaps mutant) above, with S210R, K213S, P214K, A216P, E217A counted along it

[14] = target: T14, hOrai1-mOrai1 ECL2 (SKPPA) protein (human/mouse chimera, UniProt Q96D31 1-301); assay: FACS, 293EBNA, RFI-POC grade
T14 construct: also called Ch
T14 sequence (Q96D31 other isoform, or with tags, fused parts or gaps): as the sequence (Q96D31 other isoform, or with tags, fused parts or gaps mutant) above, with K213S, P214K, A216P, E217A counted along it

[15] = target: T15, hOrai1-mOrai1 ECL2 (VST) protein (human/mouse chimera, UniProt Q96D31 1-301); assay: FACS, 293EBNA
T15 construct: also called Ch
T15 sequence (Q96D31 other isoform, or with tags, fused parts or gaps): as the sequence (Q96D31 other isoform, or with tags, fused parts or gaps mutant) above, with H224V, D226T counted along it
Description: (§3) FIG. 17A-D illustrates the results of FACS analysis showing binding to the indicated mOrai1-hOrai1 ECL2 chimeric mutants expressed on the surface of HEK-293-EBNA cells. Transfected cells were stained first with recombinant monoclonal antibodies then counter-stained with a secondary phycoerythrin-labeled goat (“Gt”) anti-human (“Hu”) IgG F(ab′)₂ antibody fragment and visualized using FACS.
(§4) Representative results of FACS analysis of binding to the mutant hOrai1-mOrai1 ECL2 chimera described above by exemplary anti-hOrai1 antibodies of the present invention are shown in FIG. 17A-D, Table 10A and Table 10B below. Table 10A (Campaign 1) and Table 10B (Campaign 2) show the gain in binding ability of exemplary monoclonal antibodies to hOrai 1-mOrai 1 ECL2 chimera mutants as determined by FACS.

[16] = target: T16, hOrai1-mOrai1 ECL2 (AANVST) protein (human/mouse chimera, UniProt Q96D31 1-301); assay: FACS, 293EBNA
T16 construct: also called Ch
T16 sequence (Q96D31 other isoform, or with tags, fused parts or gaps): as the sequence (Q96D31 other isoform, or with tags, fused parts or gaps mutant) above, with V221A, H224V, D226T counted along it
Description: as §3, §4

[17] = target: T17, hOrai1-mOrai1 ECL2 (GAA) protein (human/mouse chimera, UniProt Q96D31 1-301); assay: FACS, 293EBNA
T17 construct: also called Ch
T17 sequence (Q96D31 other isoform, or with tags, fused parts or gaps): as the sequence (Q96D31 other isoform, or with tags, fused parts or gaps mutant) above, with V219G, I220A, V221A counted along it
Description: as §3, §4

[18] = target: T18, hOrai1-mOrai1 ECL2 (…) protein (human/mouse chimera, UniProt Q96D31 1-301); assay: FACS, 293EBNA
T18 construct: also called Ch
Description: as §3, §4
T18 sequence (Q96D31 other isoform, or with tags, fused parts or gaps): as the sequence (Q96D31 other isoform, or with tags, fused parts or gaps mutant) above, with A216P, E217A, V219G, I220A, V221A, H224V, D226T counted along it

[19] = target: T19, hOrai1-mOrai1 ECL2 (PASGAA) protein (human/mouse chimera, UniProt Q96D31 1-301); assay: FACS, 293EBNA
T19 construct: also called Ch
T19 sequence (Q96D31 other isoform, or with tags, fused parts or gaps): as the sequence (Q96D31 other isoform, or with tags, fused parts or gaps mutant) above, with A216P, E217A, V219G, I220A, V221A counted along it
Description: as §3, §4

[20] = target: T7, hOrai1-mOrai1 ECL2 chimeric protein; assay: FACS, 293EBNA; remark: listed apart in the source
Description: as §3, §4

Binder | POC (percent of control, FACS Geo Mean relative to binding to Ch. 1) [1] [%] | POC (percent of control, FACS Geo Mean relative to binding to Ch. 1) [2] [%] | POC (percent of control, FACS Geo Mean relative to binding to Ch. 1) [3] [%] | POC (percent of control, FACS Geo Mean relative to binding to Ch. 1) [4] [%] | POC (percent of control, FACS Geo Mean relative to binding to Ch. 1) [5] [%] | POC (percent of control, FACS Geo Mean relative to binding to Ch. 1) [6] [%] | POC (percent of control, FACS Geo Mean relative to binding to Ch. 1) [7] [%] | POC (percent of control, FACS Geo Mean relative to binding to Ch. 1) [8] [%] | percent of control (POC) of FACS Geo Mean [9] [%] | percent of control (POC) of FACS Geo Mean [10] [%] | percent of control (POC) of FACS Geo Mean [11] [%] | percent of control (POC) of FACS Geo Mean [12] [%] | percent of control (POC) of FACS Geo Mean [13] [%] | percent of control (POC) of FACS Geo Mean [14] [%] | percent of control (POC) of FACS Geo Mean [15] [%] | percent of control (POC) of FACS Geo Mean [16] [%] | percent of control (POC) of FACS Geo Mean [17] [%] | percent of control (POC) of FACS Geo Mean [18] [%] | percent of control (POC) of FACS Geo Mean [19] [%] | percent of control (POC) of FACS Geo Mean [20] [%]
mAb 5A1.1 (antibody, human IgG2, fully human, Campaign 2; lambda CL-1) heavy: QVQLVQSGAEVKKPGASVKVPCKASGYTFTDYYINWVRQAPGQGLEWMGWINPNNGGTNYAQKFQGRVTMTRDTSISTAYMELRRLRSDDTAVYYCARERGGYEDWFDPWGQGTLVTVSSASTKGPSVFPLAPCSRSTSESTAALGCLVKDYFPEPVTVSWNSGALTSGVHTFPAVLQSSGLYSLSSVVTVPSSNFGTQTYTCNVDHKPSNTKVDKTVERKCCVECPPCPAPPVAGPSVFLFPPKPKDTLMISRTPEVTCVVVDVSHEDPEVQFNWYVDGVEVHNAKTKPREEQFNSTFRVVSVLTVVHQDWLNGKEYKCKVSNKGLPAPIEKTISKTKGQPREPQVYTLPPSREEMTKNQVSLTCLVKGFYPSDIAVEWESNGQPENNYKTTPPMLDSDGSFFLYSKLTVDKSRWQQGNVFSCSVMHEALHNHYTQKSLSLSPGK VL: QSVLTQPPSVSGAPGQRVTISCTGSSSNIGAGFDVHWYQQLPVTAPKLLIYGNRNRPSGVPARFSGSKSGTSASLAITGLQAEDEAVYYCQSYDSSLTVFGGGTKLTVL | < 1 | < 1 | < 1 | < 1 | < 1 | < 1 | < 1 | < 1 | 40 to 100 | 40 to 100 | 40 to 100 | 40 to 100 | 40 to 100 | 40 to 100 | < 1 | < 1 | < 1 | < 1 | < 1 | < 1
mAb 5F2.1 (antibody, human IgG2, lambda, V domains shown, fully human IgG2 lambda, Campaign 2) VH: QVQLVQSGAEVKKPGASVKVSCKASGYTFTDYYMNWVRQAPGQGLEWMGWINPNSGGTHYAQKFQGRVTMTRDTSISTAYMELSRLRSDDTAVYYCAREYGGYSDWFDPWGQGTLVTVSS VL: QSVLTQPPSVSGAPGQRVTISCTGSRSNIGAGYDVHWYQQLPRTAPKLLIYDNSNRPSGVPDRFSGSKSGSSASLAITGLQAEDEADYYCQSYDNSLSDSVLIGGGTKLTVLG | < 1 | < 1 | < 1 | < 1 | < 1 | < 1 | < 1 | < 1 | 40 to 100 | 40 to 100 | 40 to 100 | 40 to 100 | 40 to 100 | 40 to 100 | < 1 | < 1 | < 1 | < 1 | < 1 | < 1
mAb 5B5.2 (antibody, human IgG2, lambda, V domains shown, fully human IgG2 lambda, Campaign 2; same chains as 5B5.1) VH: QVQLVQSGAEVKKPGASVKVSCKASGYTFTDYYINWVRQAPGQGLEWMGWINPNSGGTDYAQKFQGRVTMTRDTSIRTAYMELNRLTSDDTAVYYCAREYGGYEDWFDPWGQGTLVTVSS VL: QSVLTQPPSVSGAPGQRVTISCTGSNSNIGAGFDVHWYQQLPGTVPKLLIYGNNNRPSGVPDRFSGSKSGTSASLAITGLQAEDEADYYCQSYDSRLTVFGGGTKLTVLG | < 1 | < 1 | < 1 | < 1 | < 1 | < 1 | < 1 | < 1 | 40 to 100 | 40 to 100 | 40 to 100 | 40 to 100 | 40 to 100 | 5 to 40 | < 1 | < 1 | < 1 | < 1 | < 1 | < 1
